This note sets out measurements from patent US6838262.

The experiment concerns the target human RANK, full length, expressed in or on cells (human) (UniProt Q9Y6Q6). Put plainly: cell-based or functional assay.
Chain of UniProt Q9Y6Q6 (Q9Y6Q6 26-616): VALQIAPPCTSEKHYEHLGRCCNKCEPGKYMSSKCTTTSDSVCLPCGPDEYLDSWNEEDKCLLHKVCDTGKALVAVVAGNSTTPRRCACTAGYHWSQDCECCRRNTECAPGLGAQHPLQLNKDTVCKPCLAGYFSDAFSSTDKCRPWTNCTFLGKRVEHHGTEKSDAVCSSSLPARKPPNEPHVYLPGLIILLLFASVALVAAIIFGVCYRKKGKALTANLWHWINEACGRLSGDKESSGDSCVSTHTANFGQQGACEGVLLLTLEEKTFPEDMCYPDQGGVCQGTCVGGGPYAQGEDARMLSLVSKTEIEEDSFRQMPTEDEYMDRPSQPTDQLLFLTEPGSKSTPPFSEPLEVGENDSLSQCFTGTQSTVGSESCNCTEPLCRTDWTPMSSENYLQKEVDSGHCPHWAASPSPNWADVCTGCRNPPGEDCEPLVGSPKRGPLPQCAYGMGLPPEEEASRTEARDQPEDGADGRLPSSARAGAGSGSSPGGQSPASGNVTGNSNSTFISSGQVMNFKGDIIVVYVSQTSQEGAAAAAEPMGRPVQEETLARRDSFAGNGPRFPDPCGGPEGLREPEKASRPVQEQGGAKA

In turn, “RANKL as added to human dendritic cell cultures (Example 13; species and construct not stated) (ligand)” gave an allo-stimulatory capacity of CD1a+ DC in a mixed lymphocyte reaction (MLR) greater than 10 fold.
